In the supplement of paper PMC10126150:
± gives the standard deviation of the averaged measurements.

Tested on: ATP
Test: switch fluorescence ratio, 500 uM ATP over buffer (Cy3 cluster intensity, sum of 5 cycles each) (fold (ratio)); higher = stronger signal-on switching upon ATP binding; sequences stand for … in TCGTCGGCAGCGTCAGATGTGTATAAGAGACAGTTTTTTTTTTTTTTTTTTTTTTTTT…TC
Conditions: aptamer strand: ATP DNA aptamer (quencher-CACCTGGGGGAGTATTGCGGAGGAAGG + anchor), 100 nM annealed; ATP concentration: 500 uM
Method in brief: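 Per cluster, summed Cy3 intensity from the target cycles was divided by that from the buffer cycles to give the fluorescence ratio, then averaged per switch-domain sequence. Clusters outside 100-1000 RFU were excluded. The Cy3-labelled switching-strand clusters, on a modified Illumina MiSeq flow-cell, were annealed to 100 nM quencher-labelled ATP aptamer and imaged in selection buffer, then after 15 min with 500 uM ATP at 22 °C, for five cycles with NaOH stripping and re-annealing between them.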
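Also: ATP exposure 15 min at 22 °C before imaging.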

Sequence | switch fluorescence ratio
ACTCGTCACA | 1.15 ± 0.059
ACTCTAGTTC | 1.063 ± 0.01
ACTCTATAAT | 1.146 ± 0.0092
ACTCTTATTG | 0.988 ± 0.0039
ACTCTTGTTG | 1.01 ± 0.022
ACTGAAAAAG | 0.987 ± 0.019
ACTGACTGGT | 1.06 ± 0.037
ACTGATAGAG | 1.02 ± 0.065
ACTGATAGGC | 1.18 ± 0.23
ACTGATCATG | 1.02 ± 0.028
ACTGATGAAT | 1.06 ± 0.023
ACTGATGATC | 1.016 ± 0.0039
ACTGATTTTT | 1.015 ± 0.0036
ACTGGAAGTC | 0.9875 ± 0.0088
ACTGGATGCT | 0.995 ± 0.12
ACTGGCAGC | 1.05 ± 0.017
ACTGGCAGGG | 1.01 ± 0.028
ACTGGGAGGC | 1 ± 0.096
ACTGGGCATG | 1.01 ± 0.032
ACTGGGCCGG | 1.04 ± 0.065
ACTGGGGGCT | 0.975 ± 0.0098
ACTGGGGTAG | 1.02 ± 0.061
ACTGGGTCCG | 1 ± 0.057
ACTGGTCTCA | 1.002 ± 0.0098
ACTGTAAGTC | 1.06 ± 0.026

Sequence | switch fluorescence ratio
ACTGTACGGC | 1.46 ± 0.016
ACTGTATACG | 1.08 ± 0.026
ACTGTCCCGT | 1.019 ± 0.0029
ACTGTGCGAC | 1.58 ± 0.025
ACTGTGCGTA | 1.03 ± 0.054
ACTGTGCTCT | 1.02 ± 0.016
ACTGTGGGCA | 1.01 ± 0.02
ACTGTTAATG | 1.01 ± 0.026
ACTGTTAGAT | 1.02 ± 0.054
ACTGTTAGGT | 1.036 ± 0.0055
ACTGTTAGTG | 1.02 ± 0.034
ACTGTTTTCC | 1.066 ± 0.0042
ACTGTTTTCG | 1.02 ± 0.028
ACTTAAAGTC | 0.973 ± 0.029
ACTTAACCGG | 1.05 ± 0.016
ACTTAAGAAA | 1.16 ± 0.13
ACTTAAGGTC | 1.001 ± 0.0035
ACTTAATCGT | 1.02 ± 0.045
ACTTACATGG | 1.23 ± 0.06
ACTTACTTTA | 1.18 ± 0.04
ACTTAGAAAT | 1.046 ± 0.01
ACTTAGCATT | 1.14 ± 0.024
ACTTAGTCA | 1.02 ± 0.021
ACTTAGTCCA | 1.03 ± 0.034
ACTTAGTGCC | 1.087 ± 0.0073

Sequence | switch fluorescence ratio
ACTTAGTTTT | 1.0386 ± 0.00082
ACTTATAATA | 1.04 ± 0.038
ACTTATTAAT | 1.03 ± 0.027
ACTTATTGAA | 1.11 ± 0.17
ACTTCAAGGG | 1.26 ± 0.34
ACTTCACTGC | 1.34 ± 0.042
ACTTCATGGG | 1.01 ± 0.029
ACTTCCCAAC | 1.33 ± 0.047
ACTTCCGCGA | 1.75 ± 0.11
ACTTCGGTTT | 1.01 ± 0.035
ACTTCTCTTA | 1.01 ± 0.013
ACTTCTGGTG | 1.23 ± 0.031
ACTTGAGGAT | 1 ± 0.017
ACTTGATAGG | 1.03 ± 0.041
ACTTGATGGG | 0.992 ± 0.045
ACTTGCTTGT | 1.02 ± 0.013
ACTTGGCGCT | 1.034 ± 0.0095
ACTTGGGGAG | 1 ± 0.014
ACTTGTAGAT | 1.009 ± 0.0059
ACTTGTCATC | 0.992 ± 0.043
ACTTTACAAA | 1.28 ± 0.036
ACTTTACTTA | 1.33 ± 0.02
ACTTTAGATT | 1.04 ± 0.0053
ACTTTATGTG | 0.996 ± 0.035
ACTTTCCGTT | 1.1 ± 0.05

Sequence | switch fluorescence ratio
ACTTTCGATT | 1.09 ± 0.13
ACTTTGGAGA | 1.029 ± 0.0054
ACTTTGGTGC | 1.03 ± 0.026
ACTTTTACAT | 1.13 ± 0.025
ACTTTTCTCG | 1.01 ± 0.011
ACTTTTCTCT | 1.02 ± 0.021
ACTTTTGCTG | 0.983 ± 0.019
ACTTTTGGCG | 1 ± 0.071
ACTTTTTAGG | 1.01 ± 0.044
ACTTTTTTAA | 1.004 ± 0.0029
ACTTTTTTTT | 1.01 ± 0.034
AGAAAAAGTT | 1.017 ± 0.0048
AGAAAAGGGG | 1.01 ± 0.054
AGAAAATTAC | 2.42 ± 2
AGAAAATTCG | 0.981 ± 0.024
AGAAAATTTC | 1.04 ± 0.051
AGAAACGGAA | 1.27 ± 0.35
AGAAACGGAG | 1.02 ± 0.016
AGAAAGGAGT | 0.9982 ± 0.0032
AGAAATAATC | 1.01 ± 0.015
AGAAATTTGA | 0.98 ± 0.013
AGAACGCGTA | 1.03 ± 0.013
AGAACGGTAT | 1.048 ± 0.0034
AGAACGTCTG | 0.9969 ± 0.0022
AGAACGTTCT | 0.9851 ± 0.0059

Sequence | switch fluorescence ratio
AGAACTGTGA | 0.9889 ± 0.0037
AGAACTTAAG | 1.01 ± 0.037
AGAAGCCCCT | 0.992 ± 0.031
AGAAGCTATT | 0.9724 ± 0.0017
AGAAGGCGGC | 1 ± 0.023
AGAAGGGAGG | 0.987 ± 0.011
AGAAGGGCGG | 0.99 ± 0.037
AGAAGTAATG | 0.997 ± 0.011
AGAATAAAGG | 0.993 ± 0.05
AGAATAGGCG | 1.02 ± 0.022
AGAATATCGT | 0.984 ± 0.043
AGAATATTCT | 0.98 ± 0.014
AGAATCGTAT | 1.01 ± 0.028
AGAATGAGTG | 1.026 ± 0.0048
AGAATGATTA | 0.986 ± 0.01
AGAATGCTTT | 0.9971 ± 0.0034
AGAATGGTAT | 1.07 ± 0.08
AGAATGGTGT | 1.02 ± 0.038
AGAATGGTTT | 0.985 ± 0.03
AGAATGTTTC | 0.973 ± 0.021
AGAATTCAAC | 1.003 ± 0.004
AGAATTGAGG | 0.979 ± 0.016
AGACAAGGGC | 1.06 ± 0.084
AGACACGGGG | 1.06 ± 0.02
AGACAGGGAC | 1.04 ± 0.016

Sequence | switch fluorescence ratio
AGACAGGGAG | 1.01 ± 0.031
AGACCATAGA | 1.02 ± 0.024
AGACCTTCTT | 1.51 ± 0.025
AGACCTTGGT | 0.963 ± 0.03
AGACGCGCCA | 1.05 ± 0.087
AGACGGAAAG | 0.982 ± 0.015
AGACGGAACT | 1.08 ± 0.025
AGACGGTATT | 1.056 ± 0.0039
AGACGTCCCA | 1.02 ± 0.022
AGACTCGCCC | 1.12 ± 0.059
AGACTGCATT | 1.06 ± 0.03
AGACTGTTGA | 1.04 ± 0.019
AGAGAAAGGG | 1.02 ± 0.035
AGAGAACCCT | 1.08 ± 0.048
AGAGAAGGGA | 1.002 ± 0.0071
AGAGAAGGGT | 0.996 ± 0.017
AGAGAATATT | 1.03 ± 0.039
AGAGAATGCG | 1.02 ± 0.049
AGAGACACGG | 1.03 ± 0.079
AGAGAGAGTT | 0.974 ± 0.032
AGAGAGGAGG | 0.997 ± 0.066
AGAGAGGCTA | 1 ± 0.015
AGAGAGGTCA | 0.997 ± 0.042
AGAGAGTAGA | 1.02 ± 0.021
AGAGAGTTTA | 1.04 ± 0.021

Sequence | switch fluorescence ratio
AGAGATACTT | 1.01 ± 0.035
AGAGATTGCC | 1.0678 ± 0.0008
AGAGATTTAT | 0.988 ± 0.019
AGAGCATACT | 2.12 ± 0.22
AGAGCATAGG | 1.03 ± 0.048
AGAGCCCTTA | 1.01 ± 0.014
AGAGCCGCTG | 1.02 ± 0.068
AGAGCCGGGG | 0.9777 ± 0.003
AGAGCCGGTG | 1 ± 0.041
AGAGCGAGGA | 0.986 ± 0.027
AGAGCGGTTG | 0.969 ± 0.037
AGAGCGTTAG | 1.02 ± 0.051
AGAGCTATAA | 1.254 ± 0.0015
AGAGCTGCCT | 1.06 ± 0.042
AGAGGAGTTA | 0.985 ± 0.011
AGAGGATGTA | 1 ± 0.056
AGAGGATTTG | 1.02 ± 0.022
AGAGGCAGCT | 1.03 ± 0.046
AGAGGCCATC | 0.9831 ± 0.0098
AGAGGCTAGG | 1.01 ± 0.032
AGAGGCTGAA | 1 ± 0.012
AGAGGCTGAT | 0.983 ± 0.014
AGAGGCTGGT | 0.992 ± 0.017
AGAGGCTGTT | 1.03 ± 0.041
AGAGGGAGGA | 1.017 ± 0.0086

Sequence | switch fluorescence ratio
AGAGGGATCT | 1.022 ± 0.0072
AGAGGGGAGG | 0.988 ± 0.0054
AGAGGGGGG | 0.99 ± 0.017
AGAGGGGGGT | 0.99 ± 0.022
AGAGGGGGTA | 0.997 ± 0.022
AGAGGGGTTC | 1.01 ± 0.029
AGAGGTAAT | 1.09 ± 0.12
AGAGGTGTCT | 1 ± 0.049
AGAGGTTCC | 1 ± 0.058
AGAGTAAAGC | 0.996 ± 0.02
AGAGTAGAGG | 1.01 ± 0.028
AGAGTATTTA | 0.991 ± 0.011
AGAGTCAAGT | 0.969 ± 0.017
AGAGTCCGCT | 1.18 ± 0.084
AGAGTCGAGG | 0.968 ± 0.047
AGAGTGCGTA | 0.989 ± 0.023
AGAGTGGAGG | 1 ± 0.041
AGAGTGGGGC | 0.9817 ± 0.0089
AGAGTGGTA | 0.9491 ± 0.0052
AGAGTTATGT | 1.019 ± 0.0068
AGAGTTGTTT | 0.997 ± 0.015
AGAGTTTTGG | 0.979 ± 0.025
AGATAAACG | 0.984 ± 0.056
AGATAAAGGG | 1.03 ± 0.017
AGATAACTTT | 1.02 ± 0.013
